Laboratory results as given in patent US20260234234A1 (QILU PUGET SOUND BIOTHERAPEUTICS, published 2026).

Tests used:
[1] = molecular target: T1, His6-tagged cyIL-33 (Ser112-Ile270), QB10976 (cynomolgus monkey); assay: SPR, Biacore T200
T1 construct: Entry includes N-terminal Avitag, FLAG and His6 tags; isoform X1, NCBI XP_005581824; also called cyIL-33 antigen
T1 chain: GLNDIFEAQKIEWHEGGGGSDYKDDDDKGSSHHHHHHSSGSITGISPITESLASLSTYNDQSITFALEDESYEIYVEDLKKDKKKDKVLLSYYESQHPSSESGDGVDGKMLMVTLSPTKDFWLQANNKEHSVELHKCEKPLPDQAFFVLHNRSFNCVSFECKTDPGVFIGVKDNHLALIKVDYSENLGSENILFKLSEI

[2] = molecular target: T2, Avitag_c-MYC_His6-tagged hIL-33 (Ser112-Thr270), QB10975 (human); assay: SPR competition, antibody titrated against 10 nM hIL-33, over immobilised hST2-Fc
T2 construct: Entry includes N-terminal Avitag, c-MYC and His6 tags; reduced with DTT to the active form; also called active hIL-33; reduced hIL-33
T2 chain: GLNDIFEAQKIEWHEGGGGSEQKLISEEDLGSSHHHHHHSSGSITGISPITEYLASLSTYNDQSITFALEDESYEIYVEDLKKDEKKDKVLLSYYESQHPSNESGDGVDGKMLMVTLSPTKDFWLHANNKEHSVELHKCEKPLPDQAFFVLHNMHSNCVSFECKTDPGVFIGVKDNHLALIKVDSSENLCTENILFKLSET

[3] = molecular target: T2, Avitag_c-MYC_His6-tagged hIL-33 …; assay: SPR (Biacore) blocking: mAb premixed with 10 nM hIL-33, flowed over ST2-Fc on a CM5 chip; blocked partner ST2-Fc
[4] = molecular target: T3, Avitag_c-MYC_His6_hTSLP (wild type) QB11630 (human); assay: SPR, in-house hTSLP QB11630 analyte
T3 construct: N-terminal tags are part of the entry; also called in-house hTSLP native antigen QB11630

[5] = molecular target: T4, Avitag_FLAG_His6_cyTSLP QB11632 (wild type) (cynomolgus monkey); assay: cell-based or functional assay
T4 chain: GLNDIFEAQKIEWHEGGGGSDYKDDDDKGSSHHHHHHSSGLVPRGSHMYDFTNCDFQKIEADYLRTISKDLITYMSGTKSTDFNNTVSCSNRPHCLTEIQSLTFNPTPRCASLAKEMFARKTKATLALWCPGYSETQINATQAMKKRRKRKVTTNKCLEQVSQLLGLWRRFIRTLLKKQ

[6] = molecular target: T5, native hTSLP derived from human Small Airway Epithelial Cells (healthy donor 1 and donor 2) (human, UniProt Q969D9 29-159, limits assumed); assay: cell-based or functional assay
[7] = molecular target: hTSLP, R&D Systems 1398-TS-010 (E. coli) (human, UniProt Q969D9 29-159, limits assumed); assay: SPR, captured antibody, monomeric TSLP analyte, 25 C, 1:1 Langmuir fit
[8] = molecular target: T6, Avitag_c-MYC_His6_hTSLP QB11631 with mutations of R127A + R130S (human); assay: as above
T6 construct: Substitutions and tags already in the entry; also called hTSLP (R127A+R130S)

[9] = molecular target: T3, Avitag_c-MYC_His6_hTSLP (wild type) …; assay: as above
[10] = molecular target: T3, Avitag_c-MYC_His6_hTSLP (wild type) …; assay: cell-based or functional assay
[11] = molecular target: T7, Avitag_FLAG_His6_cyTSLP QB11633 with mutations of R127A + R130S (cynomolgus monkey); assay: SPR, captured antibody, monomeric TSLP analyte, 25 C, 1:1 Langmuir fit
T7 construct: Substitutions and tags already in the entry; also called cyTSLP (R127A+R130S)
T7 chain: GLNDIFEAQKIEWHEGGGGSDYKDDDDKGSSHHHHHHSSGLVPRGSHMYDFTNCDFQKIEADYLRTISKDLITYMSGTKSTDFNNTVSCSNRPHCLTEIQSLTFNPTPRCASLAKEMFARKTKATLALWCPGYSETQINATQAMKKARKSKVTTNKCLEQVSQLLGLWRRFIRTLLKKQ

[12] = molecular target: T4, Avitag_FLAG_His6_cyTSLP QB11632 (wild …); assay: as above
[13] = molecular target: T5, native hTSLP derived from human Small …; assay: cell-based or functional assay; remark: listed apart in the source
[14] = molecular target: T7, Avitag_FLAG_His6_cyTSLP QB11633 with …; assay: cell-based or functional assay
[15] = molecular target: T6, Avitag_c-MYC_His6_hTSLP QB11631 with …; assay: cell-based or functional assay

B1: chimeric anti-hIL-33 antibody QB10998 (antibody, human IgG1, kappa, V domains shown)
VH: EVMLVESGGGLVKPGGSLKLSCAASGFTFYSSAMSWVRQTPEKRLEWVATISSGGSNTYYPDSVKGRFTISRDNAKNTLYLQMSSLGSEDTAMYYCASAYYGRRYDAMDYWGQGTSVTVSS
VL: DIVMTQAAPSIPVTPGESVSISCKSSKSLLHSNGNTYLYWFLQRPGQSPQLLIYRMSNLASGVPDRFSGSGSGTAFTLRISRVEAEDVGVYYCMQHLENPYTFGGGTKLELNR
notes: Text says murine VH on human IgG4 constant regions; the printed HC entry looks like IgG1; also called chimeric antibody
- binding result [1]: binds
- IC50 [2]: 1.5 nM
- IC50 [3]: 1.01 nM

B2: anti-hTSLP IgG1-D265A antibody QB11764 (antibody, V domains shown)
VH: EVQLVESGGGLVQPGGSLRLSCAASGFDFSSYWISWVRQAPGKRPEWIASIDIDIDIADYASWAKGRFTISRDNSKNTLYLQMNSLRAEDTAVYYCVRNLGLWGPGTLVTVSS
VL: DIQMTQSPSSLSASVGDRVTITCQSSQNVYDKDALAWYQHKPGKRPKLLIYEASRLASGVPSRFSGSGSGTHFTLTISSLQPEDAATYYCAGTRIDNIYTFGDGTKVEIKR
notes: QB11548 altered for MabPair production; alterations are in the entries; also called lead anti-hTSLP antibody QB11764
- fold lower binding affinity against QB10985 [4]: ~3 fold
- IC50, inhibition of TSLP-induced proliferation of BaF3 cells expressing hTSLPR/hIL-7Rα (CellTiter-Glo, RLU); stimulus cyTSLP QB11632 [5]: 0.34 nM
- IC50, inhibition of TSLP-induced proliferation of BaF3 cells expressing hTSLPR/hIL-7Rα (CellTiter-Glo, RLU); stimulus native hTSLP from healthy donor 2 [6]: 0.012 nM
- Kd [7]: 4 pM
- koff [7]: 0.000142 s⁻¹
- kon [7]: 3.56e+07 M⁻¹ s⁻¹
- Kd [8]: 0.0595 nM
- koff [8]: 0.000192 s⁻¹
- kon [8]: 3.23e+06 M⁻¹ s⁻¹
- Kd [9]: 0.154 nM
- koff [9]: 0.000196 s⁻¹
- kon [9]: 1.27e+06 M⁻¹ s⁻¹
- IC50, inhibition of TSLP-induced proliferation of BaF3 cells expressing hTSLPR/hIL-7Rα (CellTiter-Glo, RLU); stimulus hTSLP QB11630 [10]: 0.1 nM
- Kd [11]: 0.131 nM
- koff [11]: 0.000132 s⁻¹
- kon [11]: 1.01e+06 M⁻¹ s⁻¹
- Kd [12]: 1.27 nM
- koff [12]: 0.000174 s⁻¹
- kon [12]: 137000 M⁻¹ s⁻¹
- IC50, inhibition of TSLP-induced proliferation of BaF3 cells expressing hTSLPR/hIL-7Rα (CellTiter-Glo, RLU); stimulus native hTSLP from healthy donor 1 [13]: 0.012 nM
- IC50, inhibition of TSLP-induced proliferation of BaF3 cells expressing hTSLPR/hIL-7Rα (CellTiter-Glo, RLU); stimulus cyTSLP QB11633 [14]: 0.12 nM
- IC50, inhibition of TSLP-induced proliferation of BaF3 cells expressing hTSLPR/hIL-7Rα (CellTiter-Glo, RLU); stimulus hTSLP QB11631 [15]: 0.17 nM
